{
  "source": "paper PMC12412624",
  "about": "“Engineered Cas12j‐8 is a Versatile Platform for Multiplexed Genome Modulation in Mammalian Cells”",
  "key": {"[1]": {"system": "T1, dCas12j-8 D512R D512R;D369A;E567A;D658A (bacteriophage (metagenome))", "T1 sequence": "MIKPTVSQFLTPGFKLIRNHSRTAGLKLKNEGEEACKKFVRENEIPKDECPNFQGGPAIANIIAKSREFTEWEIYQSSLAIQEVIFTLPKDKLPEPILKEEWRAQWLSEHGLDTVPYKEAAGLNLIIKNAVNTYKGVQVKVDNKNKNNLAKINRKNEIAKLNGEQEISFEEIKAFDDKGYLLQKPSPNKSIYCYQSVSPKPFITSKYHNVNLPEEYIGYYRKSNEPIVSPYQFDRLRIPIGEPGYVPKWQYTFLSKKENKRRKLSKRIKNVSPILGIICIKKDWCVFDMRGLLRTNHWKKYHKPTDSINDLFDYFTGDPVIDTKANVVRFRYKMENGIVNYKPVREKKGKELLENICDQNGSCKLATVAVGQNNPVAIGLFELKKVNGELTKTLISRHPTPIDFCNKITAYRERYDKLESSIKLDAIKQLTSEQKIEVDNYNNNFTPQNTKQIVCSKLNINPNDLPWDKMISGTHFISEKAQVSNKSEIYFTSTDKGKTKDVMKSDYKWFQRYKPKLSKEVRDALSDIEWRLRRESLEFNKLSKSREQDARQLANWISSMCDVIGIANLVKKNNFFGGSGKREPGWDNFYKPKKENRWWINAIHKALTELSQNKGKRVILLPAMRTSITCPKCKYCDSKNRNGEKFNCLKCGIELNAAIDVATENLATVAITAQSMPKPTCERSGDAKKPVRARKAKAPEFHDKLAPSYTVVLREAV", "settings": "HEK293T cells; panel 1c (compare within a panel only); scale: mean GFP / mean GFP of wild type, printed, no background subtraction"}, "[2]": {"system": "T2, dCas12j-8 E258R+D313R+D495R E258R;D313R;D495R;D369A;E567A;D658A (bacteriophage (metagenome))", "T2 sequence": "T1 sequence with E258R, D313R, D495R, R512D", "settings": "HEK293T cells; panel 1e (compare within a panel only); scale: mean GFP / mean GFP of wild type, printed, no background subtraction"}, "[3]": {"system": "T3, dCas12j-8 E535R E535R;D369A;E567A;D658A (bacteriophage (metagenome))", "T3 sequence": "T1 sequence with R512D, E535R", "settings": "HEK293T cells; panel 1c (compare within a panel only); scale: mean GFP / mean GFP of wild type, printed, no background subtraction"}},
  "note": "Residue numbers refer to the chain shown, from its start.",
  "data": [
    {"sequence": "CUUUCAAGACUAAUAGAUUGCUCCUUACGAGGAGACACUCCCUAUCAGUGAUAGAG / TTNACTCCCTATCAGTGATAGAG / CTCTATCACTGATAGGGAGTNAA [TetO]", "values": [
      {"measurement": "binding signal", "setting": "[1]", "result": 1.07},
      {"measurement": "binding signal", "setting": "[2]", "result": 4.66},
      {"measurement": "binding signal", "setting": "[3]", "result": 0.495}
    ]}
  ]
}
